Measurements published in article PMC8378520 (Nature structural & molecular biology, 2021).

T1: FANCI (human, UniProt Q9NVI1 1-1328)
T1 sequence: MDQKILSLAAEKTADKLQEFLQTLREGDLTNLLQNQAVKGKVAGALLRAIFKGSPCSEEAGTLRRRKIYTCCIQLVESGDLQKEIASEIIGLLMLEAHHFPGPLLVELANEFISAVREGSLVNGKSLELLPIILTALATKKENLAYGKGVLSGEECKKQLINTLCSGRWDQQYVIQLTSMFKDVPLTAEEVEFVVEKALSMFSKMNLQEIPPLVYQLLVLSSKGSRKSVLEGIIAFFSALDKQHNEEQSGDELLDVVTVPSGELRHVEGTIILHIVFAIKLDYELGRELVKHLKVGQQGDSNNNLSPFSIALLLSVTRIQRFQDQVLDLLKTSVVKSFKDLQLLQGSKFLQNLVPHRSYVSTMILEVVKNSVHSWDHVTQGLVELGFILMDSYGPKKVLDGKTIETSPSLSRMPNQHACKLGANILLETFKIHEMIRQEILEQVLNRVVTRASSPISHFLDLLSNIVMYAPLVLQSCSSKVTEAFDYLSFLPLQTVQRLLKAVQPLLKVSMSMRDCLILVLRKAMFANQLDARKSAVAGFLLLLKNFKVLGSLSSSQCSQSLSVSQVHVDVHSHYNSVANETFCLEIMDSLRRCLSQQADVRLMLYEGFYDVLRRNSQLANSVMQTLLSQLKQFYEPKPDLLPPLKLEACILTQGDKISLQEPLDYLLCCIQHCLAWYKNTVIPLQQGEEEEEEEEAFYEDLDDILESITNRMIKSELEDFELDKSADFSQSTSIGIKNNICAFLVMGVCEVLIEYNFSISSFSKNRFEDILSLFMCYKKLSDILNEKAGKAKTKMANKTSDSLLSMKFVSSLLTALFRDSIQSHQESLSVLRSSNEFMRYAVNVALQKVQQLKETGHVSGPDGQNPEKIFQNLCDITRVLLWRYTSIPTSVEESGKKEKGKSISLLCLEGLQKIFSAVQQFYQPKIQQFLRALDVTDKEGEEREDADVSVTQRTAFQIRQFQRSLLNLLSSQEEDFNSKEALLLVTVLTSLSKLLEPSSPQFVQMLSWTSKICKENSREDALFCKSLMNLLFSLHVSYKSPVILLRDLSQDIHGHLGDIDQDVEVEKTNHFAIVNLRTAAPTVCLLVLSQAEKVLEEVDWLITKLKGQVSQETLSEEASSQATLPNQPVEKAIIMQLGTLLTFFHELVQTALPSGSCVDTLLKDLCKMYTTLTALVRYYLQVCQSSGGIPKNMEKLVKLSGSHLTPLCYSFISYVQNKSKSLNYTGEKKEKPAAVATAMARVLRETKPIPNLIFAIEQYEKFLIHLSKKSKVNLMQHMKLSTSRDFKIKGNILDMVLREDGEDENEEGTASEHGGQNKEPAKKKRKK

B1: FANCL (enzyme, human, UniProt Q9NW38-1 1-375, looked up)
chain: MAVTEASLLRQCPLLLPQNRSKTVYEGFISAQGRDFHLRIVLPEDLQLKNARLLCSWQLRTILSGYHRIVQQRMQHSPDLMSFMMELKMLLEVALKNRQELYALPPPPQFYSSLIEEIGTLGWDKLVYADTCFSTIKLKAEDASGREHLITLKLKAKYPAESPDYFVDFPVPFCASWTPQSSLISIYSQFLAAIESLKAFWDVMDEIDEKTWVLEPEKPPRSATARRIALGNNVSINIEVDPRHPTMLPECFFLGADHVVKPLGIKLSRNIHLWDPENSVLQNLKDVLEIDFPARAILEKSDFTMDCGICYAYQLDGTIPDQVCDNSQCGQPFHQICLYEWLRGLLTSRQSFNIIFGECPYCSKPITLKMSGRKH

Assays:
Assay in all cases: cryo-EM structure
[1] = molecular target: FA Core complex (human | human (endogenous in HEK-293F)) (UniProt O15360)
FANCI = molecular target: T1, FANCI
FANCL = molecular target: B1
cryo-EM structure = molecular target: the molecule itself

| binding result (FANCI) | Molecule | stoichiometry N (cryo-EM structure) | also measured |
| --- | --- | --- | --- |
| – | FANCI-FANCD2 (ID) complex (from UniProt Q9NVI1 1-1328; Q9BXW9 1-1451) | – | percent of Core particles with bound ID [1]: 63% |
| binds | B1 | – | – |
| binds | UBE2T (enzyme, human) MQRASRLKRELHMLATEPPPGITCWQDKDQMDDLRAQILGGANTPYEKGVFKLEVIIPERYPFEPPQIRFLTPIYHPNIDSAGRICLDVLKLPPKGAWRPSLNIATVLTSIQLLMSEPNPDDPLMADISSEFKYNKPAFLKNARQWTEKHARQKQKADEEEMLDNLPEAGDSRVHNSTQKRKASQLVGIEKKFHPDV | – | binding result (FANCL): binds |
| – | FANCA (natural protein, human, UniProt O15360-1 1-1455, looked up) MSDSWVPNSASGQDPGGRRRAWAELLAGRVKREKYNPERAQKLKESAVRLLRSHQDLNALLLEVEGPLCKKLSLSKVIDCDSSEAYANHSSSFIGSALQDQASRLGVPVGILSAGMVASSVGQICTAPAETSHPVLLTVEQRKKLSSLLEFAQYLLAHSMFSRLSFCQELWKIQSSLLLEAVWHLHVQGIVSLQELLESHPDMHAVGSWLFRNLCCLCEQMEASCQHADVARAMLSDFVQMFVLRGFQKNSDLRRTVEPEKMPQVTVDVLQRMLIFALDALAAGVQEESSTHKIVRCWFGVFSGHTLGSVISTDPLKRFFSHTLTQILTHSPVLKASDAVQMQREWSFARTHPLLTSLYRRLFVMLSAEELVGHLQEVLETQEVHWQRVLSFVSALVVCFPEAQQLLEDWVARLMAQAFESCQLDSMVTAFLVVRQAALEGPSAFLSYADWFKASFGSTRGYHGCSKKALVFLFTFLSELVPFESPRYLQVHILHPPLVPGKYRSLLTDYISLAKTRLADLKVSIENMGLYEDLSSAGDITEPHSQALQDVEKAIMVFEHTGNIPVTVMEASIFRRPYYVSHFLPALLTPRVLPKVPDSRVAFIESLKRADKIPPSLYSTYCQACSAAEEKPEDAALGVRAEPNSAEEPLGQLTAALGELRASMTDPSQRDVISAQVAVISERLRAVLGHNEDDSSVEISKIQLSINTPRLEPREHMAVDLLLTSFCQNLMAASSVAPPERQGPWAALFVRTMCGRVLPAVLTRLCQLLRHQGPSLSAPHVLGLAALAVHLGESRSALPEVDVGPPAPGAGLPVPALFDSLLTCRTRDSLFFCLKFCTAAISYSLCKFSSQSRDTLCSCLSPGLIKKFQFLMFRLFSEARQPLSEEDVASLSWRPLHLPSADWQRAALSLWTHRTFREVLKEEDVHLTYQDWLHLELEIQPEADALSDTERQDFHQWAIHEHFLPESSASGGCDGDLQAACTILVNALMDFHQSSRSYDHSENSDLVFGGRTGNEDIISRLQEMVADLELQQDLIVPLGHTPSQEHFLFEIFRRRLQALTSGWSVAASLQRQRELLMYKRILLRLPSSVLCGSSFQAEQPITARCEQFFHLVNSEMRNFCSHGGALTQDITAHFFRGLLNACLRSRDPSLMVDFILAKCQTKCPLILTSALVWWPSLEPVLLCRWRRHCQSPLPRELQKLQEGRQFASDFLSPEAASPAPNPDWLSAAALHFAIQQVREENIRKQLKKLDCEREELLVFLFFFSLMGLLSSHLTSNSTTDLPKAFHVCAAILECLEKRKISWLALFQLTESDLRLGRLLLRVAPDQHTRLLPFAFYSLLSYFHEDAAIREEAFLHVAVDMYLKLVQLFVAGDTSTVSPPAGRSLELKGQGNPVELITKARLFLLQLIPRCPKKSFSHVAELLADRGDCDPEVSAALQSRQQAAPDADLSQEPHLF | 2 | – |
| – | FANCB-FAAP100 heterodimer (complex, human) chain 1: MTSKQAMSSNEQERLLCYNGEVLVFQLSKGNFADKEPTKTPILHVRRMVFDRGTKVFVQKSTGFFTIKEENSHLKIMCCNCVSDFRTGINLPYIVIEKNKKNNVFEYFLLILHSTNKFEMRLSFKLGYEMKDGLRVLNGPLILWRHVKAFFFISSQTGKVVSVSGNFSSIQWAGEIENLGMVLLGLKECCLSEEECTQEPSKSDYAIWNTKFCVYSLESQEVLSDIYIIPPAYSSVVTYVHICATEIIKNQLRISLIALTRKNQLISFQNGTPKNVCQLPFGDPCAVQLMDSGGGNLFFVVSFISNNACAVWKESFQVAAKWEKLSLVLIDDFIGSGTEQVLLLFKDSLNSDCLTSFKITDLGKINYSSEPSDCNEDDLFEDKQENRYLVVPPLETGLKVCFSSFRELRQHLLLKEKIISKSYKALINLVQGKDDNTSSAEEKECLVPLCGEEENSVHILDEKLSDNFQDSEQLVEKIWYRVIDDSLVVGVKTTSSLKLSLNDVTLSLLMDQAHDSRFRLLKCQNRVIKLSTNPFPAPYLMPCEIGLEAKRVTLTPDSKKEESFVCEHPSKKECVQIITAVTSLSPLLTFSKFCCTVLLQIMERESGNCPKDRYVVCGRVFLSLEDLSTGKYLLTFPKKKPIEHMEDLFALLAAFHKSCFQITSPGYALNSMKVWLLEHMKCEIIKEFPEVYFCERPGSFYGTLFTWKQRTPFEGILIIYSRNQTVMFQCLHNLIRILPINCFLKNLKSGSENFLIDNMAFTLEKELVTLSSLSSAIAKHESNFMQRCEVSKGKSSVVAAALSDRRENIHPYRKELQREKKKMLQTNLKVSGALYREITLKVAEVQLKSDFAAQKLSNL chain 2: MAGAAPRVRYLAGFCCPLGGLAAGKPRVLCHEAEVFLSTGSELVYVYDQEGGLLTAAFRFPDQVWHLELLAPRRLLYALCARRGLYCLSLDHPGRSRSTSQDDRDSEDGDQPSPVIPVDPDACILPDAALCAFTLLDSVLVTLVQGPARWKMQLFEQPCPGEDPRPGGQIGEVELSSYTPPAGVPGKPAAPHFLPVLCSVSPSGSRVPHDLLGGSGGFTLEDALFGLLFGADATLLQSPVVLCGLPDGQLCCVILKALVTSRSAPGDPNALVKILHHLEEPVIFIGALKTEPQAAEAAENFLPDEDVHCDCLVAFGHHGRMLAIKASWDESGKLVPELREYCLPGPVLCAACGGGGRVYHSTPSDLCVVDLSRGSTPLGPEQPEEGPGGLPPMLCPASLNICSVVSLSASPRTHEGGTKLLALSAKGRLMTCSLDLDSEMPGPARMTTESAGQKIKELLSGIGNISERVSFLKKAVDQRNKALTSLNEAMNVSCALLSSGTGPRPISCTTSTTWSRLQTQDVLMATCVLENSSSFSLDQGWTLCIQVLTSSCALDLDSACSAITYTIPVDQLGPGARREVTLPLGPGENGGLDLPVTVSCTLFYSLREVVGGALAPSDSEDPFLDECPSDVLPEQEGVCLPLSRHTVDMLQCLRFPGLAPPHTRAPSPLGPTRDPVATFLETCREPGSQPAGPASLRAEYLPPSVASIKVSAELLRAALKDGHSGVPLCCATLQWLLAENAAVDVVRARALSSIQGVAPDGANVHLIVREVAMTDLCPAGPIQAVEIQVESSSLADICRAHHAVVGRMQTMVTEQATQGSSAPDLRVQYLRQIHANHETLLREVQTLRDRLCTEDEASSCATAQRLLQVYRQLRHPSLILL | 2 | – |
